Our source for the Km, kcat and kcat/Km values is the PETadex activity labels (doi:10.1016/s0014-5793(99)00813-3).

Changes are numbered by the printed parent chain.

Substrate in this data set: p-NP-C4
The settings on record: pH 7.1; 25 °C.

B1: unnamed (protein)
chain: MKPENKLPVLDLISAEMKTVVNTLQPDLPPWPATGTIAEQRQYYTLERRFWNAGAPEMATRAYMVPTKYGQVETRLFCPQPDSPATLFYLHGGGFILGNLDTHDRIMRLLASYSQCTVIGIDYTLSPEARFPQAIEEIVAACCYFHQQAEDYQINMSRIGFAGDSAGAMLALASALWLRDKQIDCGKVAGVLLWYGLYGLRDSVTRRLLGGVWDGLTQQDLQMYEEAYLSNDADRESPYYCLFNNDLTREVPPCFIAGAEFDPLLDDSRLLYQTLAAHQQPCEFKLYPGTLHAFLHYSRMMKTADEALRDGAQFFTAQL
Broadly, the Km is the concentration of substrate that gives half-maximal velocity. In general, kcat refers to the maximal rate divided by the concentration of active sites. The term kcat/Km denotes the second-order rate constant that governs catalysis at low substrate concentration. For the protein B1, the Km amounted to 500 µM, the kcat is 30.9 s⁻¹ and the kcat/Km was found to be 61800 M⁻¹ s⁻¹.

B2: unnamed (protein)
chain: B1 chain with D164A
As to B2, the Km came to 1000 µM, the kcat was found to be 0.007 s⁻¹ and the kcat/Km was 7 M⁻¹ s⁻¹.

B3: unnamed (protein)
chain: B1 chain with E128Q
With B3, the Km amounted to 350 µM, the kcat was 7.4 s⁻¹ and the specificity constant (kcat/Km) is 21100 M⁻¹ s⁻¹.

B4: unnamed (protein)
chain: B1 chain with D266A
Regarding B4, the Km was 500 µM, the catalytic constant (kcat) was 3.4 s⁻¹ and the kcat/Km was 6800 M⁻¹ s⁻¹.

B5: unnamed (protein)
chain: B1 chain with G163A
As for B5, the Km is 500 µM, the catalytic constant (kcat) came to 2.9 s⁻¹ and the kcat/Km was 5800 M⁻¹ s⁻¹.

B6: unnamed (protein)
chain: B1 chain with G167A
For the protein B6, the Km turned out to be 2000 µM, the kcat is 49.4 s⁻¹ and the kcat/Km is 24700 M⁻¹ s⁻¹.

B7: unnamed (protein)
chain: B1 chain with D262A
In the case of B7, the Km came out at 400 µM, the kcat was found to be 0.034 s⁻¹ and the kcat/Km was determined as 85 M⁻¹ s⁻¹.

B8: unnamed (protein)
chain: B1 chain with H103N
On to B8, for which the Km was found to be 250 µM, the kcat stood at 12.1 s⁻¹ and the kcat/Km came out at 48400 M⁻¹ s⁻¹.
